Experimental data taken from paper PMC8379094 (Cell Reports, 2021).

What was measured:
[1] = biological target: SARS-CoV-2 spike receptor binding domain, wild type, recombinant (Severe acute respiratory syndrome …, UniProt P0DTC2); assay: BLI
[2] = biological target: SARS-CoV-2 spike S1 subunit, wild type, recombinant (SARS-CoV-2, WT (QHD43416, Wuhan-Hu-1), UniProt P0DTC2); assay: BLI

B1: BL6 mAb (antibody, V domains shown)
VH: EVQLVESGGGLVQPGRSLRLSCEVSGFTFEDYDMQWVRQAPGKGLEWVSGISWNGGIIGYGDSVKGRFTISRDNAKNSLYLQMNSLRGEDTALYSCAKALHSGDDSGQQAFDIWGQGTMVTVSS
VL: SYVLTQPPSVSVAPGQTAKITCGENNIGRRSVHWYQQKPGQAPVLVIFNDSDRPSGIPERFSGSMSGNTATLTISRVEAGDEADYYCQVWDSGSDHVVFGGGTELTVL
- binding result [1]: binds
- binding result [2]: binds
